Data set [1] has as its system EL-4 tumours. Briefly: EL-4 tumour growth in mice (s.c. flank tumour model). In kind it is in vivo, C57BL/6 mice. To be noted: for inhibition of tumour growth: Example 1, oral diet, day 42.
Data set [2] deals with EL-4 tumours. Nature of the data set: Apoptotic index of tumour sections (TUNEL, annexin-V-fluos). It counts as in vivo, C57BL/6 mice. To be noted: Example 7; vs mice fed control diet; P<0.001. How it is done: For in situ detection of apoptotic cells, tumors were excised and immediately frozen in dry ice, and stored at −70° C. Frozen serial sections of 6-μm thickness were fixed with paraformaldehyde solution (4% in PBS, pH 7.4), and permeabilized with a solution containing 0.1% Triton X-100 and 0.1% sodium citrate. They were incubated with 20 μl TUNEL reagent (In Situ apoptosis detection kit from Boehringer Mannheim, Germany) for 60 min at 37° C., and examined by fluorescence microscopy. Adjacent sections were counter-stained with haematoxylin to count the total number of cells, or the number of apoptotic cells in ten randomly selected fields (magnification of ×40). The apototic index (AI) was calculated as the number of apoptotic cells×100/total number of nucleated cells. For detection of apoptotic cells in vitro, the numbers of apoptotic and necrotic tumour cells were measured by staining with annexin-V-fluos, TUNEL, and trypan blue, as described previously (Kanwar, et al., 2001).
Sections were prepared from tumours of mice shown in FIGS. 4A and 4B at day 56 for the untreated control group fed the control diet, at day 70 for the groups fed either the control or iron-saturated bovine lactoferrin diet receiving paclitaxel and/or doxorubicin, and 7 days after treatment with drugs for mice fed the control diet. […]

Data set [3] can be described thus: Western blot detection of bovine lactoferrin in plasma, tumour and organs of fed mice. It counts as in vivo. Conditions: oral diet. How it is done: Groups of 5 tumour-bearing mice were fed either the control diet or an iron-saturated bovine lactoferrin diet and treated with paclitaxel or doxorubicin, as indicated. Mice were killed on days described in Example 6 and plasma collected. Referring to FIG. 6, plasma proteins (80 μg) were separated on a 10% polyacrylamide SDS-gel, transferred to a membrane, and blotted with an antibody against bovine lactoferrin (upper panel). The relative amounts of bovine lactoferrin in each lane were recorded by densitometry (lower panel). The order of the plasma samples shown in the histograph is the same for the Western blot. A 75 kDa band characteristic of lactoferrin was present in the plasma samples taken from all the different treatment groups fed bovine lactoferrin, whereas this same band was absent from the plasma of mice fed the control diet (FIG. 6).
Tumour homogenates and sections were screened to determine whether lactoferrin in the systemic circulation reached the tumour site. A group of 5 tumour-bearing mice were fed the control diet or an iron-saturated bovine lactoferrin diet, and treated with paclitaxel and doxorubicin. Mice were killed on days described in Example 6, and tissues from the tumour and small intestine were collected. Tumour and intestine homogenates (80 μg of protein) were separated on a 10% polyacrylamide SDS-gel, transferred to a membrane, and Western blotted with an antibody against bovine lactoferrin (upper panel of FIG. 7). The relative amounts of bovine lactoferrin in each lane were recorded by densitometry (lower panel of FIG. 7). The order of the plasma samples shown in the histograph is the same for the Western blot.
A group of 5 tumour-bearing mice were fed an iron-saturated bovine lactoferrin diet. Mice were killed on days described in Example 6, and tissues from multiple organs, including different regions of the intestine, were collected. Organ homogenates (80 μg of protein) were separated on a 10% polyacrylamide SDS-gel, transferred to a membrane, and blotted with either an antibody against bovine lactoferrin (upper panel of FIG. 8A) or an anti-α-tubulin mAb (middle panel of FIG. 8A). Bovine lactoferrin (1 μg) was included as a standard. The relative amounts of bovine lactoferrin in each lane were recorded by densitometry (lower panel of FIG. 8A). The order of the plasma samples shown in the histograph is the same for the Western blot. […] Roughly equal amounts of bovine lactoferrin were retained by the proximal and distal regions of the small intestine, and the large intestine.
(In general: A western blot detects proteins with antibodies after separation by electrophoresis.)

Data set [4] concerns IL-18. Nature of the data set: IL-18 production by cultured intestinal loops. Conditions: Example 20; 400 and 800 μg/ml; 48 h; vs bovine serum albumin control protein. It counts as cell-based, mice. How it is done: Cytokine levels in the supernatants of homogenates of the small intestine were determined using a “sandwich” ELISA kit (Endogen, Woburn, Mass.). They were detected within standard curve ranges of 15-375 pg/ml for IL-4, 0-2450 pg/ml for IL-5, 15-1000 pg/ml for TNF-α, 0-3000 pg/ml for IFN-γ, 37-3000 pg/ml for IL-10, 31.3-2000 pg/ml for IL-12, and 31.3-2000 pg/ml for IL-18, respectively. Quantification of nitrite, indicative of NO production, was carried out by the Griess reaction (Sigma, USA). The results are expressed as the mean nitrite concentration (μM)±SD.
100% Fe-saturated Lf, natural Lf (less than 20% iron saturated), and bovine serum albumin control were added at 400 and 800 μg/ml to intestinal loops (2.5 cm segments of the small intestine) prepared from healthy 6 to 7 week-old female mice, which were kept in culture for 48 h. IL-18 levels released by the intestinal loops, and present in the supernatants of homogenates of the small intestine were determined using a “sandwich” ELISA kit as described above.

B1: iron-saturated bovine lactoferrin: Iron-saturated bovine lactoferrin extract (100% saturated) prepared from natural bLf (protein)
chain: APRKNVRWCTISQPEWFKCRRWQWRMKKLGAPSITCVRRAFALECIRAIAEKKADAVTLDGGMVFEAGRDPYKLRPVAAEIYGTKESPQTHYYAVAVVKKGSNFQLDQLQGRKSCHTGLGRSAGWIIPMGILRPYLSWTESLEPLQGAVAKFFSASCVPCIDRQAYPNLCQLCKGEGENQCACSSREPYFGYSGAFKCLQDGAGDVAFVKETTVFENLPEKADRDQYELLCLNNSRAPVDAFKECHLAQVPSHAVVARSVDGKEDLIWKLLSKAQEKFGKNKSRSFQLFGSPPGQRDLLFKDSALGFLRIPSKVDSALYLGSRYLTTLKNLRETAEEVKARYTRVVWCAVGPEEQKKCQQWSQQSGQNVTCATASTTDDCIVLVLKGEADALNLDGGYIYTAGKCGLVPVLAENRKSSKHSSLDCVLRPTEGYLAVAVVKKANEGLTWNSLKDKKSCHTAVDRTAGWNIPMGLIVNQTGSCAFDEFFSQSCAPGADPKSRLCALCAGDDQGLDKCVPNSKEKYYGYTGAFRCLAEDVGDVAFVKNDTVWENTNGESTADWAKNLNREDFRLLCLDGTRKPVTEAQSCHLAVAPNHAVVSRSDRAAHVKQVLLHQQALFGKNGKNCPDKFCLFKSETKNLLFNDNTECLAKLGGRPTYEEYLGTEYVTAIANLKKCSTSPLLEACAFLTR
modifications: iron-saturated; Bovine Lactoferrin
notes: Iron-saturated bovine lactoferrin extract (100% saturated) prepared from natural bLf
With B1, the “inhibition of tumour growth” value came out at 31% in data set [1] (2 of 5 mice, vs control diet, P>0.05) and 51% in data set [1] (the latter 3 mice (tumours first prevented for one week), P<0.05). Further, the “mice remaining completely tumour-free” value in data set [1] (Example 2, of 24 mice, monitored 11 weeks) is listed as “Four”. The “mice that resisted the tumour challenge for 6 weeks” value in data set [1] (Example 2, of 24 mice, tumours then grew at reduced rate) is given as “Five”. Further, the “time for tumours to reach 0.4 cm in diameter” value in data set [1] (Example 13, diet started at ~0.2 cm, control mice one week) is recorded as “two”. In addition, the “mice of ten that completely rejected the tumour challenge” value in data set [1] (Example 15, 20 g of Lf per 2.4 Kg diet) is on record as “one”; in data set [1] (Example 16, 1 g Fe-Lf per 2.4 Kg diet), “one”; in data set [1] (Example 16, 5 g Fe-Lf per 2.4 Kg diet) it was “two”; in data set [1] (Example 16, 25 g Fe-Lf per 2.4 Kg diet), “three”. Moreover, the “tumour growth rate vs control diet” value in data set [1] (Example 16, 5 and 25 g per 2.4 Kg diet) was “grew significantly (p<0.05 at days 35-49) more slowly”; in data set [1] (Example 16, lowest and highest doses (1 and 100 g per 2.4 Kg diet)), “did not differ greatly”. Moreover, the EL-4 tumour response entry in data set [1] (Example 18, 28 g Fe-Lf per 2.4 Kg diet, drugs i.p. at ~0.4 to 0.5 cm) is on record as “slowed the growth of all three tumour types, but failed to eradicate the tumours altogether”. In addition, in data set [2], the “increase in the apoptotic index of tumours” value is on record as 1.9 fold. For the same molecule, in data set [3] (Example 9, Western blot), the “state of bovine lactoferrin in plasma” value is “largely undegraded”. Moreover, in data set [3] (Example 9, Western blot of plasma), the “75 kDa band characteristic of lactoferrin in plasma” value was “present”. For the same molecule, the “75 kDa band and partially degraded products in tumour and small intestine” value in data set [3] (Example 10, homogenates) was “present in homogenates of both the tumour and small intestine”. The “bovine lactoferrin of 75 kDa in organs” value in data set [3] (Example 11, organ homogenates) is “present in all regions of the intestine, and in the liver, but it was also present in lesser amounts in spleen, heart, lung, kidney, and brain”. Moreover, the “increase in the levels of IL-18 in the intestine” value in data set [4] was determined as 10 fold.

The values are drawn from patent publication US20090202574A1, “METHODS OF IMMUNE OR HAEMATOLOGICAL ENHANCEMENT, INHIBITING TUMOUR FORMATION OR GROWTH, AND TREATING OR PREVENTING CANCER” (priority 2004, published 2009).
